According to patent US20060099689:

B1: murine caspase 7 (protein)
chain 1: AKPDRSSIISSILLKKKRNASAGPVRTGRDRVPTYLYRMDFQKMGKCIIINNKNFDKATGMDVRNGTDKDAGALFKCFQNLGFEVTVHNDCSCAKMQDLLRKASEEDHSNSACFACVLLSHGEEDLIYGKDGVTPIKDLTAHFRGDRCKTLLEKPKLFFIQACRGTELDDGIQAD
chain 2: ANPRNKIPVEADFLFAYSTVPGYYSWRNPGKGSWFVQALCSILNEHGKDLEIMQILTRVNDRVARHFESQSDDPRFNEKKQIPCMVSMLTKELYFSR
B2: murine Caspase-3 (protein)
chain 1: SGIYLDSSYKMDYPEMGICIIINNKNFHKSTGMSSRSGTDVDAANLRETFMGLKYQVRNKNDLTREDILELMDSVSKEDHSKRSSFVCVILSHGDEGVIYGTNGPVELKKLTSFFRGDYCRSLTGKPKLFIIQACRGTELDCGIETD
chain 2: SGTDEEMACQKIPVEADFLYAYSTAPGYYSWRNSKDGSWFIQSLCSMLKLYAHKLEFMHILTRVNRKVATEFESFSLDSTFHAKKQIPCIVSMLTKELYFYH

How the values were obtained:
[1] = biological target: H-GST-DEVD/S-mLIF, P09056
[2] = biological target: fusion protein of GST and mLIF where the DEVD site is preceded by a GPGS sequence (L1: GPGSDEVD), P09056
[3] = biological target: fusion protein of GST and mLIF with only the DEVD site in the linker (L0: DEVD), P09056
[4] = biological target: the 20 fusion proteins of the formula H-GST-DEVD/X-mLIF, where X is any of the possible 20 amino acids

Protein | efficiency of cleavage (H-GST-DEVD/mLIF, P09056) | processing of the fusion protein (gel, FIG. 3b) (GST-C-hIFNα) | amount of enzyme sufficient to process 10 microgram of fusion protein [1] | time needed for processing [1] | amount of enzyme sufficient to process 10 microgram of fusion protein (H-GST-DEVD/mLIF, P09056) | percent of fusion protein processed (50 ng enzyme, 45 minutes) (H-GST-DEVD/mLIF, P09056) | time needed for processing (H-GST-DEVD/mLIF, P09056) | percent of fusion protein processed (2 microgram enzyme on 10 microgram substrate) (MBP-L0-hIFNalpha) | percent of fusion product processed (densitometric scanning of the gel) [2] | processing yield (densitometric scanning of the gel) [3] | cleavage of P1′ variants (gel, FIG. 6) [4]
B1 | the murine caspase 7 was not as active as the murine caspase 3 and more enzyme needed to be added to obtain the same efficiency of cleavage |  |  |  |  |  |  |  |  |  | 
B2 |  | Caspase-3 on the other hand gave a high yield of processing even after only 45 minutes of incubation | as little as 50 ng of enzyme is sufficient to process 10 microgram of protein | the reaction was finished after 45 minutes when using Caspase-3 | as little as 50 ng of enzyme is sufficient to process 10 microgram of protein | An amount of 50 ng is sufficient to process >90% of 10 microgram of a GST-mLIF fusion protein | the reaction was finished after 45 minutes when using Caspase-3 | 2 microgram of caspase 3 is needed to process only 50% of 10 microgram of MBP-L0-hIFNalpha | 90% of the fusion product containing L1 was processed | only 10% processing yield was seen under these conditions when using the L0 linker | all amino acids in the P1′ position could be processed by Caspase-3
